Source: the supplement of paper PMC9732359
± gives the uncertainty stated by the source.

Test: protein stability index of a GFP-peptide fusion (yeast GPS) (PSI 1-4); higher = more stable; sorted into four equal gates, so the index is relative within each strain
Outline: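 The protein stability index of a peptide was calculated by multiplying its read frequency in each gate by that gate's number and adding the products. The peptides were tiled 17-residue stretches of yeast proteins, fused downstream of GFP on a Cherry-expressing plasmid and carried in yeast as a pooled library. Mid-log cultures in leucine-free medium were sorted into four equal gates by GFP/Cherry ratio, and each gate's plasmids were PCR-amplified and Illumina-sequenced.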

Sequence | protein stability index (doa10∆) | protein stability index (pdr5∆) | protein stability index (san1∆) | protein stability index (ubr1∆)
KIMQSISNKDVIFKIRD [SRB4] | 3.34 ± 0.1 | 2.91 ± 0.15 | 3.22 ± 0.11 | 2.72 ± 0.12
PHDLIIGTADIFIRQLK [BRR2] | 2.11 ± 0.057 | 2.51 ± 0.069 | 2.27 ± 0.073 | 2.49 ± 0.052
KSKERSSQFVRLASEPG [YMR129W/POM152] | 2.65 ± 0.14 | 2.62 ± 0.13 | 3.16 ± 0.1 | 2.8 ± 0.074
VLSIPPANHLQSDFCLS [YGL100W/SEH1] | 2.94 ± 0.11 | 2.44 ± 0.1 | 2.52 ± 0.11 | 2.59 ± 0.044
AIGTKRYDSNSGGEREI [RPT2] | 3.28 ± 0.22 | 3.54 ± 0.11 | 3.39 ± 0.12 | 3.5 ± 0.13
SMSEEFKYVSVRYEEKR [BRR2] | 3.41 ± 0.2 | 3.38 ± 0.14 | 3.12 ± 0.22 | 
KTRKTYCKGKTCRKHTQ [RPL42A] | 2.45 ± 0.068 | 1.69 ± 0.068 | 2.75 ± 0.072 | 2.06 ± 0.043
ETKVDELRYQSHILNSH [DSN1] | 2.38 ± 0.067 | 2.84 ± 0.057 | 2.79 ± 0.055 | 3 ± 0.05
MGKRVDFSARTVISGDP [RPO21] | 2.98 ± 0.087 | 3.27 ± 0.12 | 3.08 ± 0.14 | 3.1 ± 0.19
RFTPGSFTNYITRSFKE [RPS0A] | 3.03 ± 0.16 | 3.36 ± 0.1 | 2.93 ± 0.1 | 3.07 ± 0.11
FDKIIKIREDHINKIPS [SRB8] | 2.67 ± 0.12 | 2.95 ± 0.066 | 2.96 ± 0.06 | 2.81 ± 0.062
DSHKRIPDMSKNVELGW [SNU114] | 3.06 ± 0.17 | 3.28 ± 0.11 | 2.79 ± 0.13 | 3.41 ± 0.097
KPIQNGEIIDISAFTQF [ARP9] | 3.02 ± 0.098 | 2.76 ± 0.085 | 2.64 ± 0.091 | 2.98 ± 0.061
NGAGGLMYATDWQMMTS [CSL4] | 3.23 ± 0.15 | 2.93 ± 0.12 |  | 2.99 ± 0.09
LTWLSSFSVCKIRCFRY [IRR1] | 2.07 ± 0.053 | 1.59 ± 0.054 | 1.58 ± 0.087 | 1.61 ± 0.04
DLTFKLADILKANISLE [RPO21] | 2.49 ± 0.068 | 2.68 ± 0.087 | 2.46 ± 0.067 | 2.32 ± 0.047
YISNLLYGVTICYNKKT [REC8] | 1.22 ± 0.036 | 1.27 ± 0.048 | 1.3 ± 0.077 | 1.21 ± 0.03
DVKKPFSFGTSQPNNTP [YLR335W/NUP2] | 2.61 ± 0.096 | 2.34 ± 0.083 | 2.5 ± 0.12 | 2.15 ± 0.064
LTPIQKKIMDETPSRLL [ITC1] | 3.33 ± 0.074 | 3.39 ± 0.062 | 3.16 ± 0.049 | 3.39 ± 0.039
LNEEAVIFLSSLLTLVG [YJL039C/NUP192] | 2.52 ± 0.076 | 2.72 ± 0.086 | 2.3 ± 0.11 | 2.9 ± 0.088
NFNKFFKIWHGEINKIC [PCI8] | 1.24 ± 0.049 | 1.13 ± 0.046 | 1.15 ± 0.079 | 1.14 ± 0.059
FQHADNSSMRYGYWFDC [AAR2] | 3.06 ± 0.11 | 2.77 ± 0.12 | 2.15 ± 0.089 | 3.14 ± 0.14
AQQQKRGGFGGRNRGRP [RPS2] | 3.32 ± 0.17 | 3.26 ± 0.13 | 3.31 ± 0.069 | 3.51 ± 0.15
NSNDSVFVGSGKGTGKT [BRR2] | 3.36 ± 0.14 | 3.27 ± 0.16 | 3.32 ± 0.1 | 3.33 ± 0.11
TKTNVDNNSKAEASFTF [YLR335W/NUP2] | 3.05 ± 0.063 | 3.24 ± 0.067 | 3.07 ± 0.045 | 3.13 ± 0.046
LVAAFIASLERELILAK [YCG1] | 1.79 ± 0.065 | 2.21 ± 0.092 | 1.93 ± 0.081 | 1.48 ± 0.053

Sequence | protein stability index (doa10∆) | protein stability index (pdr5∆) | protein stability index (san1∆) | protein stability index (ubr1∆)
ITYTPVRHGRAGATTSR [RPS15] | 2.28 ± 0.11 | 2.24 ± 0.081 | 2.58 ± 0.088 | 2.92 ± 0.099
YWVPDWDGVIPTPAIIK [RPO21] | 2.34 ± 0.14 | 2.7 ± 0.096 | 2.8 ± 0.081 | 2.8 ± 0.079
CKLFDKISFNLRLKLFL [SRB8] | 1.41 ± 0.069 | 1.23 ± 0.055 | 1.2 ± 0.086 | 1.18 ± 0.046
LKLDKIIHVLTTMFENT [RGR1] | 2.07 ± 0.049 | 2.43 ± 0.069 | 2.39 ± 0.075 | 2.73 ± 0.044
IVPVISTIENVLFYIGR [COB] | 1.85 ± 0.059 | 1.68 ± 0.042 | 2.4 ± 0.058 | 2.34 ± 0.056
TIEVLDEVITEGQADID [POP7] | 2.94 ± 0.064 | 3.1 ± 0.061 | 3.06 ± 0.072 | 3.07 ± 0.049
WVFSYLRWFELKPKLYY [SIR3] | 1.93 ± 0.081 | 1.96 ± 0.071 | 2.5 ± 0.19 | 2.49 ± 0.054
LSRPYKALKTNINFASG [CDC53] | 2.4 ± 0.049 | 2.61 ± 0.062 | 2.4 ± 0.057 | 2.66 ± 0.048
SAFKFIHTQLSEIKQQI [YJL039C/NUP192] | 2.33 ± 0.1 | 2.62 ± 0.087 | 2.82 ± 0.12 | 2.83 ± 0.061
NIIQAKRDAKAAGSYYV [RPL7A] | 3.39 ± 0.11 | 3.24 ± 0.082 | 3.11 ± 0.057 | 2.64 ± 0.087
PIDIFQIIRRVKEMEPK [SIR3] | 3.1 ± 0.13 | 3.22 ± 0.18 |  | 2.94 ± 0.29
VPSYIHVEKERASTELS [YIL149C/MLP2] | 2.33 ± 0.1 | 2.46 ± 0.069 | 2.76 ± 0.084 | 2.77 ± 0.054
EFIFGTYNMIDAAAEKR [ARP7] | 2.99 ± 0.057 | 3.02 ± 0.057 | 3.08 ± 0.044 | 3.12 ± 0.04
EEYKKSLYAYCHSKLRG [GRR1] | 2.29 ± 0.074 | 2.31 ± 0.07 | 2.42 ± 0.09 | 2.44 ± 0.075
NNIDQSLILKESGSTPI [YAR002W/NUP60] | 1.85 ± 0.085 | 1.78 ± 0.1 |  | 1.61 ± 0.064
LMCLSSKYCEKSLPLLI [YCS4] | 2.45 ± 0.1 | 2.71 ± 0.076 | 2.39 ± 0.089 | 2.39 ± 0.052
LDEMELHPYNSRGLFEK [YDL116W/NUP84] | 3.23 ± 0.094 | 3.04 ± 0.1 | 2.86 ± 0.076 | 3.22 ± 0.063
NVVEIWVFSYLRWFELK [SIR3] | 1.31 ± 0.088 | 1.38 ± 0.066 | 2.17 ± 0.16 | 2.21 ± 0.063
NNVDNKYKSGGKFSFSP [SSN2] | 2.23 ± 0.054 | 2.37 ± 0.044 | 2.63 ± 0.064 | 2.17 ± 0.038
SEGYQKTFSRLDALTRH [RPN4] | 1.17 ± 0.091 | 1.56 ± 0.15 | 1.06 ± 0.24 | 
VVGLGERVSPTDIEEGM [RPT1] |  | 3.33 ± 0.24 |  | 
LNLPLQFSLPNGDNSTT [SNF12] | 2.48 ± 0.047 | 1.99 ± 0.043 | 2.283 ± 0.013 | 2.08 ± 0.038
DGKGAVYSFDPVGSYER [PRE7] | 3.31 ± 0.18 | 2.57 ± 0.12 | 2.94 ± 0.15 | 3.27 ± 0.081
YGNDEEVLFYEDNYNPK [RPN4] | 3.11 ± 0.094 | 3.2 ± 0.12 | 3.12 ± 0.097 | 2.96 ± 0.074
PAHTVIIKGTDVYSPEK [BRR2] | 3.02 ± 0.055 | 3.19 ± 0.077 | 2.54 ± 0.072 | 2.68 ± 0.055
RIENPEKYAAAAPAATS [RPP0] | 2.95 ± 0.085 | 3.22 ± 0.11 | 2.71 ± 0.094 | 3.16 ± 0.057
